One block for each binder: values may come before it.
Tests used:
[1] = target: T1, Activin A (homodimer of two inhibin βA subunits; R&D Systems, #338-AC) (human, UniProt P08476 311-426); test: SPR blocking: 5 nM Activin A + 1.88 nM binder over hActRIIA-hFc surface
T1 construct: Bought protein; also called inhibin-βA dimer
T1 sequence: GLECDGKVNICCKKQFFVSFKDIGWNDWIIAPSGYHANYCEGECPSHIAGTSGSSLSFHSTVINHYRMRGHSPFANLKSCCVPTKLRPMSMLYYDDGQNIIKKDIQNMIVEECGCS
Procedure: (§1) The binding signal (RU) was measured at 150 seconds after the start of the injection, and this signal was subtracted by the measured RU value for a negative control reference surface to determine the specific binding signal.

[2] = target: T1, Activin A (homodimer of two inhibin βA …); test: SPR blocking: 5 nM Activin A + 7.50 nM binder over hActRIIB-hFc (Control 4) surface
[3] = target: T1, Activin A (homodimer of two inhibin βA …); test: SPR blocking: 5 nM Activin A + 30 nM binder over hActRIIA-hFc surface
Procedure: as §1

[4] = target: T1, Activin A (homodimer of two inhibin βA …); test: SPR blocking: 5 nM Activin A + 1.88 nM binder over Follistatin-288 surface
Procedure: as §1

[5] = target: T1, Activin A (homodimer of two inhibin βA …); test: SPR blocking: 5 nM Activin A + 60 nM binder over hActRIIA-hFc surface
Procedure: as §1

[6] = target: T1, Activin A (homodimer of two inhibin βA …); test: SPR blocking: 5 nM Activin A + 60 nM binder over hActRIIB-hFc (Control 4) surface
Procedure: as §1

[7] = target: T1, Activin A (homodimer of two inhibin βA …); test: SPR blocking: 5 nM Activin A + 7.5 nM binder over Follistatin-288 surface
Procedure: as §1

[8] = target: T1, Activin A (homodimer of two inhibin βA …); test: SPR blocking: 5 nM Activin A + 30 nM binder over hActRIIB-hFc (Control 4) surface
Procedure: as §1

[9] = target: T1, Activin A (homodimer of two inhibin βA …); test: SPR blocking: 5 nM Activin A + 30 nM binder over Follistatin-288 surface
Procedure: as §1

[10] = target: T1, Activin A (homodimer of two inhibin βA …); test: SPR blocking: 5 nM Activin A + 0.00 nM binder over hActRIIB-hFc (Control 4) surface
Procedure: as §1

[11] = target: T1, Activin A (homodimer of two inhibin βA …); test: SPR blocking: 5 nM Activin A + 15 nM binder over hActRIIA-hFc surface
Procedure: as §1

[12] = target: T1, Activin A (homodimer of two inhibin βA …); test: SPR blocking: 5 nM Activin A + 3.75 nM binder over hActRIIB-hFc (Control 4) surface
Procedure: as §1

[13] = target: T1, Activin A (homodimer of two inhibin βA …); test: SPR blocking: 5 nM Activin A + 15 nM binder over Follistatin-288 surface
Procedure: as §1

[14] = target: T1, Activin A (homodimer of two inhibin βA …); test: SPR blocking: 5 nM Activin A + 0.94 nM binder over hActRIIA-hFc surface
Procedure: as §1

[15] = target: T1, Activin A (homodimer of two inhibin βA …); test: SPR blocking: 5 nM Activin A + 3.75 nM binder over Follistatin-288 surface
Procedure: as §1

[16] = target: T1, Activin A (homodimer of two inhibin βA …); test: SPR blocking: 5 nM Activin A + 1.88 nM binder over hActRIIB-hFc (Control 4) surface
Procedure: as §1

[17] = target: T1, Activin A (homodimer of two inhibin βA …); test: SPR blocking: 5 nM Activin A + 0.00 nM binder over hActRIIA-hFc surface
Procedure: as §1

[18] = target: T1, Activin A (homodimer of two inhibin βA …); test: SPR blocking: 5 nM Activin A + 3.75 nM binder over hActRIIA-hFc surface
Procedure: as §1

[19] = target: T1, Activin A (homodimer of two inhibin βA …); test: SPR blocking: 5 nM Activin A + 60 nM binder over Follistatin-288 surface
Procedure: as §1

[20] = target: T1, Activin A (homodimer of two inhibin βA …); test: SPR blocking: 5 nM Activin A + 15 nM binder over hActRIIB-hFc (Control 4) surface
[21] = target: T1, Activin A (homodimer of two inhibin βA …); test: SPR blocking: 5 nM Activin A + 0 nM binder over Follistatin-288 surface
Procedure: as §1

[22] = target: T1, Activin A (homodimer of two inhibin βA …); test: SPR blocking: 5 nM Activin A + 7.50 nM binder over hActRIIA-hFc surface
Procedure: as §1

[23] = target: T1, Activin A (homodimer of two inhibin βA …); test: SPR blocking: 5 nM Activin A + 0.94 nM binder over Follistatin-288 surface
Procedure: as §1

[24] = target: T1, Activin A (homodimer of two inhibin βA …); test: SPR blocking: 5 nM Activin A + 0.94 nM binder over hActRIIB-hFc (Control 4) surface
[25] = target: T2, Activin AB (human, UniProt P08476 311-426; P09529 293-407); test: SPR (Biacore), mAb captured on anti-Fc, Activin AB injected, 25 C
T2 construct: Heterodimer of one betaA and one betaB subunit; bought (R&D Systems #1006-AB-005 / #1066-AB)
T2 chain 1: T1 sequence
T2 chain 2: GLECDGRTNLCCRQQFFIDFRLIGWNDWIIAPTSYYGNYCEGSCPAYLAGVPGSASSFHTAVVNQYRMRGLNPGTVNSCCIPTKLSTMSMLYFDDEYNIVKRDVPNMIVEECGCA
Procedure: (§2) Antibody-antigen association was monitored for 240 seconds while dissociation in buffer was monitored for 600 seconds. Kinetic association and dissociation rate constants were determined by processing and fitting the data using Scrubber software version 2.0c. Binding equilibrium dissociation constants (KD) and dissociative half-lives (t_{1/2}) were then calculated from the kinetic rate constants as: KD (M)=kd/kₐ and t_{1/2} (min)=[ln 2/(60*kd)]. (NB=no binding observed under the conditions used; NT=not tested).

[26] = target: T2, Activin AB; test: SPR (Biacore), mAb captured on anti-Fc, Activin AB injected, 37 C
Procedure: as §2

[27] = target: T3, Activin AC (human, UniProt P55103 237-352); test: SPR (Biacore), mAb captured on anti-Fc, Activin AC injected, 25 C
T3 construct: Heterodimer of one betaA and one betaC subunit; bought (R&D Systems #4879-AC)
T3 sequence 1: T1 sequence
T3 sequence 2: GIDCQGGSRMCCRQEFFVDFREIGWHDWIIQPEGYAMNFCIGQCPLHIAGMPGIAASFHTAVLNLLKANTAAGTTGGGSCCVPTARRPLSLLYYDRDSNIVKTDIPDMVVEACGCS
Procedure: as §2

[28] = target: T3, Activin AC; test: cell-based or functional assay
[29] = target: T4, Activin A (human, UniProt P08476 311-426); test: cell-based or functional assay
T4 sequence: T1 sequence

[30] = target: T5, Activin B (human, UniProt P09529 293-407); test: cell-based or functional assay
T5 chain: T2 chain 2

[31] = target: T2, Activin AB; test: cell-based or functional assay
[32] = target: T3, Activin AC; test: SPR (Biacore), mAb captured on anti-Fc, Activin AC injected, 37 C
Procedure: as §2

% bound RU w/no inhibitor [1]: 114%
% bound RU w/no inhibitor [2]: 42%
% bound RU w/no inhibitor [3]: 114%
% bound RU w/no inhibitor [4]: 122%
% bound RU w/no inhibitor [5]: 116%
% bound RU w/no inhibitor [6]: 41%
% bound RU w/no inhibitor [7]: 97%
% bound RU w/no inhibitor [8]: 41%
% bound RU w/no inhibitor [9]: 94%
% bound RU w/no inhibitor [10]: 100%
% bound RU w/no inhibitor [11]: 112%
% bound RU w/no inhibitor [12]: 47%
% bound RU w/no inhibitor [13]: 96%
% bound RU w/no inhibitor [14]: 112%
% bound RU w/no inhibitor [15]: 103%
% bound RU w/no inhibitor [16]: 78%
% bound RU w/no inhibitor [17]: 100%
% bound RU w/no inhibitor [18]: 111%
% bound RU w/no inhibitor [19]: 93%
% bound RU w/no inhibitor [20]: 42%
% bound RU w/no inhibitor [21]: 100%
% bound RU w/no inhibitor [22]: 110%
% bound RU w/no inhibitor [23]: 120%
% bound RU w/no inhibitor [24]: 93%
B1: H4H10423P (antibody, human IgG4, V domains shown)
VH: QVQLQQSGPGLLKPSQTLSLTCAISGDSVSSNSAAWSWIRQSPSRGLEWLGRTYYRANWFNDYALSVKSRITINPVTSTNHFSLQLHSVTPEDTAVYYCAREGALGYYFDSWGQGTLVTVSS
VL: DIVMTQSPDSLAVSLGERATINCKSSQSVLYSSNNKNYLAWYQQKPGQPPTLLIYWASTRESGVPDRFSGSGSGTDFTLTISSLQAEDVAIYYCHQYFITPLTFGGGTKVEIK
notes: H4H prefix means human IgG4 Fc

50 nM Ag Bound (RU) [25]: 15.5 RU
Kd [25]: 0.177 nM
koff [25]: 0.000526 s⁻¹
kon [25]: 2.97e+06 M⁻¹ s⁻¹
t1/2 [25]: 22 min
50 nM Ag Bound (RU) [26]: 17.7 RU
Kd [26]: 0.314 nM
koff [26]: 0.00163 s⁻¹
kon [26]: 5.2e+06 M⁻¹ s⁻¹
t1/2 [26]: 7.1 min
50 nM Ag Bound (RU) [27]: 11.8 RU
Kd [27]: 0.442 nM
koff [27]: 0.000227 s⁻¹
kon [27]: 513000 M⁻¹ s⁻¹
t1/2 [27]: 50.8 min
IC50 [M], inhibition of 4 nM Activin AC in A204/CAGAx12-Luc Smad2/3-luciferase bioassay [28]: 7.5e-10 M
IC50 [M], inhibition of 100 pM Activin A in A204/CAGAx12-Luc Smad2/3-luciferase bioassay [29]: 2.8e-10 M
IC50 [M], inhibition of 50 pM Activin B in A204/CAGAx12-Luc Smad2/3-luciferase bioassay [30]: 5.2e-09 M
IC50 [M], inhibition of 30 pM Activin AB in A204/CAGAx12-Luc Smad2/3-luciferase bioassay [31]: 4.3e-10 M
50 nM Ag Bound (RU) [32]: 13.3 RU
Kd [32]: 1.05 nM
koff [32]: 0.000755 s⁻¹
kon [32]: 718000 M⁻¹ s⁻¹
t1/2 [32]: 15.3 min
B2: H4H10440P2 (antibody, human IgG4, V domains shown)
VH: EVQLVESGGGVVQPGGSLRLSCAASTFTFDDFAMHWVRQAPGKGLEWVSLITGDGGSTYYADPVKGRFTISRDNSKNSLYLQMNSLRTEDTALYYCVKDWWIAARPDYYYYGMDVWGQGTTVTVSS
VL: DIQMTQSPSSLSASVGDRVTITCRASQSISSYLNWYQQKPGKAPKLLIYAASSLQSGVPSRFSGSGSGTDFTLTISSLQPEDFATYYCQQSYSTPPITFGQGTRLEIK

IC50 [M], inhibition of 100 pM Activin A in A204/CAGAx12-Luc Smad2/3-luciferase bioassay [29]: 1.5e-10 M
IC50 [M], inhibition of 50 pM Activin B in A204/CAGAx12-Luc Smad2/3-luciferase bioassay [30]: 1e-07 M
B3: H4H10433P2 (antibody, human IgG4, V domains shown)
VH: EVQLVESGGGLVQAGRSLRLSCEASGFTFDDYGMHWVRQGPGKGLEWVSGISWNSGNIDYADSVKGRFTISRDNAKTSLYLQMNSLKTDDTALYFCAKDAVGFNWNYFLFDYWGQGTLVTVSS
VL: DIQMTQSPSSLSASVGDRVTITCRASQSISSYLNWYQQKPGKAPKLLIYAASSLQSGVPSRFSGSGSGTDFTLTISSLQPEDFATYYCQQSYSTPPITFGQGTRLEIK

Reference: patent US20150037339A1 (Regeneron, published 2015)
